B1: Sorting nexin-15 (Homo sapiens), Q9NRS6 (parent)
chain: MSRQAKDDFLRHYTVSDPRTHPKGYTEYKVTAQFISKKDPEDVKEVVVWKRYSDFRKLHGDLAYTHRNLFRRLEEFPAFPRAQVFGRFEASVIEERRKGAEDLLRFTVHIPALNNSPQLKEFFRGGEVTRPLEVSRDLHILPPPLIPTPPPDDPRLSQLLPAERRGLEELEVPVDPPPSSPAQEALDLLFNCESTEEASGSPARGPLTEAELALFDPFSKEEGAAPSPTHVAELATMEVESARLDQEPWEPGGQEEEEDGEGGPTPAYLSQATELITQALRDEKAGAYAAALQGYRDGVHVLLQGVPSDPLPARQEGVKKKAAEYLKRAEEILRLHLSQLPP
B2: Glycolipid transfer protein (Homo sapiens), Q9NZD2 (parent)
chain: MALLAEHLLKPLPADKQIETGPFLEAVSHLPPFFDCLGSPVFTPIKADISGNITKIKAVYDTNPAKFRTLQNILEVEKEMYGAEWPKVGATLALMWLKRGLRFIQVFLQSICDGERDENHPNLIRVNATKAYEMALKKYHGWIVQKIFQAALYAAPYKSDFLKALSKGQNVTEEECLEKIRLFLVNYTATIDVIYEMYTQMNAELNYKV
partner: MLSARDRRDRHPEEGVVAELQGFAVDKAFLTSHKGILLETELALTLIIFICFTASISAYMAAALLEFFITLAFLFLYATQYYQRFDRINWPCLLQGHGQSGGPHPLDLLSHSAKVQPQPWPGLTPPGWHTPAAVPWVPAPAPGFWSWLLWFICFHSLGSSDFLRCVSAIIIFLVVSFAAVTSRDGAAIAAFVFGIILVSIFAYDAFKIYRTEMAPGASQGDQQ
B3: Proton-coupled zinc antiporter SLC30A2 (Homo sapiens), Q9BRI3 (parent)
chain: MEAKEKQHLLDARPAIRSYTGSLWQEGAGWIPLPRPGLDLQAIELAAQSNHHCHAQKGPDSHCDPKKGKAQRQLYVASAICLLFMIGEVVGGYLAHSLAVMTDAAHLLTDFASMLISLFSLWMSSRPATKTMNFGWQRAEILGALVSVLSIWVVTGVLVYLAVERLISGDYEIDGGTMLITSGCAVAVNIIMGLTLHQSGHGHSHGTTNQQEENPSVRAAFIHVIGDFMQSMGVLVAAYILYFKPEYKYVDPICTFVFSILVLGTTLTILRDVILVLMEGTPKGVDFTAVRDLLLSVEGVEALHSLHIWALTVAQPVLSVHIAIAQNTDAQAVLKTASSRLQGKFHFHTVTIQIEDYSEDMKDCQACQGPSD
B4: Zinc finger protein 488 (Homo sapiens), Q96MN9 (parent)
chain: MPEWPPCLSVAPALVITMAAGKGAPLSPSAENRWRLSEPELGRGCKPVLLEKTNRLGPEAAVGRAGRDVGSAELALLVAPGKPRPGKPLPPKTRGEQRQSAFTELPRMKDRQVDAQAQEREHDDPTGQPGAPQLTQNIPRGPAGSKVFSVWPSGARSEQRSAFSKPTKRPAERPELTSVFPAGESADALGELSGLLNTTDLACWGRLSTPKLLVGDLWNLQALPQNAPLCSTFLGAPTLWLEHTQAQVPPPSSSSTTSWALLPPTLTSLGLSTQNWCAKCNLSFRLTSDLVFHMRSHHKKEHAGPDPHSQKRREEALACPVCQEHFRERHHLSRHMTSHS
B5: F-BAR domain only protein 1 (Homo sapiens), O14526 (parent)
chain: MSYFGEHFWGEKNHGFEVLYHSVKQGPISTKELADFIRERATIEETYSKAMAKLSKLASNGTPMGTFAPLWEVFRVSSDKLALCHLELTRKLQDLIKDVLRYGEEQLKTHKKCKEEVVSTLDAVQVLSGVSQLLPKSRENYLNRCMDQERLRRESTSQKEMDKAETKTKKAAESLRRSVEKYNSARADFEQKMLDSALRFQAMEETHLRHMKALLGSYAHSVEDTHVQIGQVHEEFKQNIENVSVEMLLRKFAESKGTGREKPGPLDFEAYSAAALQEAMKRLRGAKAFRLPGLSRREREPEPPAAVDFLEPDSGTCPEVDEEGFTVRPDVTQNSTAEPSRFSSSDSDFDDEEPRKFYVHIKPAPARAPACSPEAAAAQLRATAGSLILPPGPGGTMKRHSSRDAAGKPQRPRSAPRTSSCAERLQSEEQVSKNLFGPPLESAFDHEDFTGSSSLGFTSSPSPFSSSSPENVEDSGLDSPSHAAPGPSPDSWVPRPGTPQSPPSCRAPPPEARGIRAPPLPDSPQPLASSPGPWGLEALAGGDLMPAPADPTAREGLAAPPRRLRSRKVSCPLTRSNGDLSRSLSPSPLGSSAASTALERPSFLSQTGHGVSRGPSPVVLGSQDALPIATAFTEYVHAYFRGHSPSCLARVTGELTMTFPAGIVRVFSGTPPPPVLSFRLVHTTAIEHFQPNADLLFSDPSQSDPETKDFWLNMAALTEALQRQAEQNPTASYYNVVLLRYQFSRPGPQSVPLQLSAHWQCGATLTQVSVEYGYRPGATAVPTPLTNVQILLPVGEPVTNVRLQPAATWNLEEKRLTWRLPDVSEAGGSGRLSASWEPLSGPSTPSPVAAQFTSEGTTLSGVDLELVGSGYRMSLVKRRFATGMYLVSC
B6: Nanos homolog 2 (Homo sapiens), P60321 (parent)
chain: MQLPPFDMWKDYFNLSQVVWALIASRGQRLETQEIEEPSPGPPLGQDQGLGAPGANGGLGTLCNFCKHNGESRHVYSSHQLKTPDGVVVCPILRHYVCPVCGATGDQAHTLKYCPLNGGQQSLYRRSGRNSAGRRVKR
B7: Ras association domain-containing protein 7 (Homo sapiens), Q02833 (parent)
chain: MLLGLAAMELKVWVDGIQRVVCGVSEQTTCQEVVIALAQAIGQTGRFVLVQRLREKERQLLPQECPVGAQATCGQFASDVQFVLRRTGPSLAGRPSSDSCPPPERCLIRASLPVKPRAALGCEPRKTLTPEPAPSLSRPGPAAPVTPTPGCCTDLRGLELRVQRNAEELGHEAFWEQELRREQAREREGQARLQALSAATAEHAARLQALDAQARALEAELQLAAEAPGPPSPMASATERLHQDLAVQERQSAEVQGSLALVSRALEAAERALQAQAQELEELNRELRQCNLQQFIQQTGAALPPPPRPDRGPPGTQGPLPPAREESLLGAPSESHAGAQPRPRGGPHDAELLEVAAAPAPEWCPLAAQPQAL
B8: Protein BTG1 (Homo sapiens), P62324 (parent)
chain: MHPFYTRAATMIGEIAAAVSFISKFLRTKGLTSERQLQTFSQSLQELLAEHYKHHWFPEKPCKGSGYRCIRINHKMDPLIGQAAQRIGLSSQELFRLLPSELTLWVDPYEVSYRIGEDGSICVLYEASPAGGSTQNSTNVQMVDSRISCKEELLLGRTSPSKNYNMMTVSG
B9: Protein phosphatase 1 regulatory inhibitor subunit 16B (Homo sapiens), Q96T49 (parent)
chain: MASHVDLLTELQLLEKVPTLERLRAAQKRRAQQLKKWAQYEQDLQHRKRKHERKRSTGGRRKKVSFEASVALLEASLRNDAEEVRYFLKNKVSPDLCNEDGLTALHQCCIDNFEEIVKLLLSHGANVNAKDNELWTPLHAAATCGHINLVKILVQYGADLLAVNSDGNMPYDLCEDEPTLDVIETCMAYQGITQEKINEMRVAPEQQMIADIHCMIAAGQDLDWIDAQGATLLHIAGANGYLRAAELLLDHGVRVDVKDWDGWEPLHAAAFWGQMQMAELLVSHGASLSARTSMDEMPIDLCEEEEFKVLLLELKHKHDVIMKSQLRHKSSLSRRTSSAGSRGKVVRRASLSDRTNLYRKEYEGEAILWQRSAAEDQRTSTYNGDIRETRTDQENKDPNPRLEKPVLLSEFPTKIPRGELDMPVENGLRAPVSAYQYALANGDVWKVHEVPDYSMAYGNPGVADATPPWSSYKEQSPQTLLELKRQRAAAKLLSHPFLSTHLGSSMARTGESSSEGKAPLIGGRTSPYSSNGTSVYYTVTSGDPPLLKFKAPIEEMEEKVHGCCRIS
partner: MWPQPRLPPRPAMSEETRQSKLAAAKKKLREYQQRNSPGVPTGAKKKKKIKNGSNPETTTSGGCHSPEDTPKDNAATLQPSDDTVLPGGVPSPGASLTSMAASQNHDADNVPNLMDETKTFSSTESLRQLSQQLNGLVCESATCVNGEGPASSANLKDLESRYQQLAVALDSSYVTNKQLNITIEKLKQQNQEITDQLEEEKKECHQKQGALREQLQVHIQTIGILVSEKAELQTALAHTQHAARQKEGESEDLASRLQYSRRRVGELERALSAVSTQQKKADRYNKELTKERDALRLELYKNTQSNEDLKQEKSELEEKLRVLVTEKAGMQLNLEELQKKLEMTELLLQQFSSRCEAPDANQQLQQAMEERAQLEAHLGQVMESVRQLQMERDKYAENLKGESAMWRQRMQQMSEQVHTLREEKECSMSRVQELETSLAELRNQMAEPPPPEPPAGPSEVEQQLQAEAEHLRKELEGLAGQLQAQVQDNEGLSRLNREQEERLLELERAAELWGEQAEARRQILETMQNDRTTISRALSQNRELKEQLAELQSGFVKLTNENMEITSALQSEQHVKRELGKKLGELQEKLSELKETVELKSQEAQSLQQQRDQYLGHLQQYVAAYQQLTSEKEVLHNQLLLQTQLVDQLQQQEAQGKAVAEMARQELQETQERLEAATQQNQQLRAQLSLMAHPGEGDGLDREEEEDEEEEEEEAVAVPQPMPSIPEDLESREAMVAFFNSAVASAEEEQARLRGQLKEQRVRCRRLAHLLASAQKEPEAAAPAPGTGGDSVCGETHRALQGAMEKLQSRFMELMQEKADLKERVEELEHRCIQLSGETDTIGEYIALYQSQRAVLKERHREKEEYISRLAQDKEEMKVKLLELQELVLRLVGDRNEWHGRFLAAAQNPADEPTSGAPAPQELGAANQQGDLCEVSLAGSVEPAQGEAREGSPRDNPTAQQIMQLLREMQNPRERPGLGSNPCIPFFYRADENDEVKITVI
B10: Beta-taxilin (Homo sapiens), Q8N3L3 (parent)
chain: MEANHSEQLSAERQSTPPGDSSSLPSHNGLEKEDGQDSPTPVQPPEKEASVHPDISEELNRQLEDIINTYGSAASTAGKEGSARASEQPENAESPDNEDGDCEETTEEAGREPVASGEPPTVKEPVSNKEQKLEKKILKGLGKEANLLMQNLNKLQTPEEKFDFLFKKYAELLDEHRTEQKKLKLLQKKQVQIQKEKDQLQGEHSRAILARSKLESLCRELQRHNKTLKEEALQRAREEEEKRKEITSHFQSTLTDIQGQIEQQSERNMKLCQENTELAEKLKSIIDQYELREEHLDKIFKHRELQQKLVDAKLEQAQEMMKEAEERHKREKEYLLNQAAEWKLQAKVLKEQETVLQAQLTLYSGRFEEFQSTLTKSNEVFATFKQEMDKTTKKMKKLEKDTATWKARFENCNKALLDMIEEKALRAKEYECFVMKIGRLENLCRALQEERNELHKKIRDAEISEKDDQSQHNSDEEPESNVSVDQEIDAEEVNSVQTAVKNLATAFMIIHHPESTPHQSKETQPEIGSSQESADAALKEPEQPPLIPSRDSESPLPPLTPQAEAEGGSDAEPPSKASNSPAGLGAETQCEGLPVGAQADQASWKPEAEASGQAPQAPTEASLQKMEADVPAPACAAEEHVAAMVPACEPSRQPPRAAAEELPVGASAGPQPRNVADTNLEGVD
partner: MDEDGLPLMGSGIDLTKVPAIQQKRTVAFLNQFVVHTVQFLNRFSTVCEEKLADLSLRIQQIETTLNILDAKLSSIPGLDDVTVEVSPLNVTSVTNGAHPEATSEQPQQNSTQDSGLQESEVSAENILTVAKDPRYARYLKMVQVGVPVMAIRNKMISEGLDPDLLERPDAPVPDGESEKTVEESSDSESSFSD

In one assay the parent is B1. As to conditions: with reep6_human REEP6, Q96HR9.
Sequence of reep6_human REEP6, Q96HR9 (Q96HR9 whole entry): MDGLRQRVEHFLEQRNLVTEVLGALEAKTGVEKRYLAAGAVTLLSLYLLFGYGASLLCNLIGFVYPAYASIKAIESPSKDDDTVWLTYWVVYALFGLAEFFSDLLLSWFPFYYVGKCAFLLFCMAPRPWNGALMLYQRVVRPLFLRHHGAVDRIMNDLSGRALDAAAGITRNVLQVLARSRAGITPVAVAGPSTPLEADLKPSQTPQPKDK
In the case of R334C, the “effect of a mutation on the interaction” value was “with no effect”.

Variants of B1 are the subject of the next assay. As to conditions: with ar6p1_human ARL6IP1, Q15041.
Sequence of ar6p1_human ARL6IP1, Q15041 (Q15041 whole entry): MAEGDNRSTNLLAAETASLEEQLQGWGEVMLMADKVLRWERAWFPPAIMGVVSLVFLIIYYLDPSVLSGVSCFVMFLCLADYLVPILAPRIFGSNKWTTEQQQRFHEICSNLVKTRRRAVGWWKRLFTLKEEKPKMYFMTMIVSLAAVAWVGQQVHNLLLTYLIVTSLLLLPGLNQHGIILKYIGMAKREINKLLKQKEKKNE
On to R334C, for which the “effect of a mutation on the interaction” value was “with no effect”.

The next assay covers variants of B2. Conditions: with cklf5_human CMTM5, Q96DZ9.
Consider R116Q, for which the “effect of a mutation on the interaction” value is “with no effect”. On the same count and under the same terms, for R68Q the value was “with no effect”.

In the next assay the parent is B3. Conditions: with tnr12_human TNFRSF12A.
In the case of T181M, the “effect of a mutation on the interaction” value was “with no effect”.

The variants in another assay derive from B3. As to conditions: with ada33_human ADAM33, Q9BZ11.
Sequence of ada33_human ADAM33, Q9BZ11 (Q9BZ11 whole entry): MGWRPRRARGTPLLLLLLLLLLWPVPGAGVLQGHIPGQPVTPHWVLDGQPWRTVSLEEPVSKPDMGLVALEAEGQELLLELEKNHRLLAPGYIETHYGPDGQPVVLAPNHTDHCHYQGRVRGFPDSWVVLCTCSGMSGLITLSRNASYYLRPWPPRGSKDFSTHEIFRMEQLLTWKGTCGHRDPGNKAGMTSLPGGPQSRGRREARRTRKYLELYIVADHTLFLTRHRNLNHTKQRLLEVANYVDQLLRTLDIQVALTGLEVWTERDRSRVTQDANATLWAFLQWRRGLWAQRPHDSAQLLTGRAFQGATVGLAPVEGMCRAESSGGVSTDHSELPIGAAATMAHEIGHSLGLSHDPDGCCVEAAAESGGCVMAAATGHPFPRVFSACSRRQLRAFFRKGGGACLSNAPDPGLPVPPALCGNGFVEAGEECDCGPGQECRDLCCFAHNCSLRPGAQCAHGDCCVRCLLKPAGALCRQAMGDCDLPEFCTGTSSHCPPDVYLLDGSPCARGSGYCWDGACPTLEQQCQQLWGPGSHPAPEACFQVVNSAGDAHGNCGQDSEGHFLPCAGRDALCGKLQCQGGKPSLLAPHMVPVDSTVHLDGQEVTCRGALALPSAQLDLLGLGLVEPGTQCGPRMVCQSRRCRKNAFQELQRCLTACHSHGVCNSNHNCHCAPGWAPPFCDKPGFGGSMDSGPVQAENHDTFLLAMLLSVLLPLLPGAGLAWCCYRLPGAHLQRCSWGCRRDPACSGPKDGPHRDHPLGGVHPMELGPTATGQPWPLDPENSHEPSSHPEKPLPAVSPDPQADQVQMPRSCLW
For the variant T181M, the “effect of a mutation on the interaction” value was “with no effect”.

Variants of B3 are the subject of a further assay. As to conditions: with ccl4_human CCL4, P13236.
Sequence of ccl4_human CCL4, P13236 (P13236 whole entry): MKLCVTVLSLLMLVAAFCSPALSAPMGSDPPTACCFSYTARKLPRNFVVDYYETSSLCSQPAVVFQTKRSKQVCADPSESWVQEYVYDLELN
On to T181M, for which the “effect of a mutation on the interaction” value is reported as “with no effect”.

The variants in another assay derive from B4. Conditions: with rbpms_human RBPMS.
With A72V, the “effect of a mutation on the interaction” value is listed as “with no effect”. Same read-out and setting: for C230R the value was “with no effect”.

In a further assay the parent is B5. As to conditions: with ptk6_human PTK6, Q13882.
Consider E423G, for which the “effect of a mutation on the interaction” value is listed as “with no effect”.

In a further assay the parent is B5. As to conditions: with exos5_human EXOSC5, Q9NQT4.
Sequence of exos5_human EXOSC5, Q9NQT4 (Q9NQT4 whole entry): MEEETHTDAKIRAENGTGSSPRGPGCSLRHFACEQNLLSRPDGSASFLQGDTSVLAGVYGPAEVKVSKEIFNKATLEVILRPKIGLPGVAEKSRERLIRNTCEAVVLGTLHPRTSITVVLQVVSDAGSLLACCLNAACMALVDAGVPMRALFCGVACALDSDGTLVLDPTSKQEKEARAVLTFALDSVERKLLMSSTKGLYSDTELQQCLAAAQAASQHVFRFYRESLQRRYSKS
E423G: the “effect of a mutation on the interaction” value was “with no effect”.

The variants in the next assay derive from B6. Conditions: with magac_human MAGEA12, P43365.
Sequence of magac_human MAGEA12, P43365 (P43365 whole entry): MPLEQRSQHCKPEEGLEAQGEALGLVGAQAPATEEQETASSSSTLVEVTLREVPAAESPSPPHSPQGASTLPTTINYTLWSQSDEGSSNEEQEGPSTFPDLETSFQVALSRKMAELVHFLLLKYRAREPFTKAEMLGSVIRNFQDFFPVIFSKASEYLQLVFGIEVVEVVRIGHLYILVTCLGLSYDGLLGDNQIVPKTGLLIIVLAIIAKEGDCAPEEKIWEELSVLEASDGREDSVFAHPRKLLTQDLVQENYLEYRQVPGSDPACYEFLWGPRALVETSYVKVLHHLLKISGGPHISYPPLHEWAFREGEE
On to F13L, for which the “effect of a mutation on the interaction” value was “with no effect”. As to H68Q, the “effect of a mutation on the interaction” value is “with no effect”. In the case of R26Q, the “effect of a mutation on the interaction” value is “with no effect”. The same measure, in the same setting: under R73C stands “with no effect”.

Variants of B6 are the subject of a further assay. As to conditions: with ccdb1_human CCNDBP1, O95273.
Sequence of ccdb1_human CCNDBP1, O95273 (O95273 whole entry): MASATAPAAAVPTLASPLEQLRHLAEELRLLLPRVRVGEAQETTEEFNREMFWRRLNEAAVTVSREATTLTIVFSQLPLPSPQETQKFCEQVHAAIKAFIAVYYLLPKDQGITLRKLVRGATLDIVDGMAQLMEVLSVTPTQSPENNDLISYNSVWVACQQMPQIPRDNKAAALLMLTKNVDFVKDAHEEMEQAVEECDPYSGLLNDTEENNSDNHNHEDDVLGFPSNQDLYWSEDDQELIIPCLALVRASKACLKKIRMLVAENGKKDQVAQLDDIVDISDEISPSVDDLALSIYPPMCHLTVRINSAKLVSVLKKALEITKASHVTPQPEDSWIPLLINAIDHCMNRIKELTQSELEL
As to F13L, the “effect of a mutation on the interaction” value is reported as “with no effect”. Still for that read-out and setting: for H68Q the value was “with no effect”; for R26Q, “with no effect”.

R73C: the “effect of a mutation on the interaction” value is recorded as “with no effect”.

Another assay covers variants of B7. As to conditions: with nck2_human NCK2, O43639.
Sequence of nck2_human NCK2, O43639 (O43639 whole entry): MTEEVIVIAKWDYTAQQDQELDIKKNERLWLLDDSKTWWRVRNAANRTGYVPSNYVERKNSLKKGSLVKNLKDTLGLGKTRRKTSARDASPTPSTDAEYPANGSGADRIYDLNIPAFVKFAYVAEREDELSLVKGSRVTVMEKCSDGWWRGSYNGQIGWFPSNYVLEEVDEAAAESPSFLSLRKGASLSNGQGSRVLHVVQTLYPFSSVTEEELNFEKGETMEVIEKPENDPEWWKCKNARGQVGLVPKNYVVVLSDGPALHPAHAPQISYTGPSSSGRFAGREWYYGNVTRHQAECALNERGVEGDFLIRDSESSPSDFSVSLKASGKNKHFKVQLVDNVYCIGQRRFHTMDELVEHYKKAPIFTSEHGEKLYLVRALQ
On to R156Q, for which the “effect of a mutation on the interaction” value was “with no effect”.

In the next assay the parent is B8. As to conditions: with cnot8_human CNOT8, Q9UFF9.
Sequence of cnot8_human CNOT8, Q9UFF9 (Q9UFF9 whole entry): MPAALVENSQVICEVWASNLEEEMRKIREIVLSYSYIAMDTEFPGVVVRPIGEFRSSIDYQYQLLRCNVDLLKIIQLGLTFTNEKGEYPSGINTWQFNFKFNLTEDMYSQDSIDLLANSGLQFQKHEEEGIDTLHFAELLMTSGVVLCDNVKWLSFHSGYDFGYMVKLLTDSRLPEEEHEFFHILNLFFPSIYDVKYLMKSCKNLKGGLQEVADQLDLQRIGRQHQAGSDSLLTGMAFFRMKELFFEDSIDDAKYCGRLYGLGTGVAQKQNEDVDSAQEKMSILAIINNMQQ
N139S: the “effect of a mutation on the interaction” value was “with no effect”.

Another assay covers variants of B9. Conditions: with goga2_human GOLGA2, Q08379.
Turning to P519S, the “effect of a mutation on the interaction” value was “with no effect”.

Variants of B10 are the subject of the next assay. As to conditions: with wasc3_human WASHC3, Q9Y3C0.
As for I527T, the “effect of a mutation on the interaction” value was “with no effect”.
